Source: patent US20170088628A1, “Compositions and Methods for Identifying B Cell Malignancies Responsive to B Cell Depleting Therapy” (MedImmune, LLC, priority 2014, published 2017)

Legend:
[1] = system: Chronic lymphocytic leukemia; assay: CP-1019, Chronic lymphocytic leukemia patients treated with MEDI-551 or Rituximab+Bendamustine; type: in vivo, human; settings: of 22 MEDI-551-treated / 12 Rituximab-treated patients
Description: miR-629 expression levels were measured in baseline peripheral blood mononucleated cell (PBMC) samples from Chronic lymphocytic leukemia patients treated with MEDI-551 or Rituximab+Bendamustine (CP-1019). • 22 MEDI-551-treated patients (10 CR/PR; 3 PD; 4 SD) • 12 Rituximab-treated patients (6 CR/PR; 2 PD; 2 SD)

RL = assay: in vitro ADCC assay; type: cell-based, human
ARH-77 = assay: in vitro ADCC assay; type: cell-based, human; settings: ARH-77, in vitro ADCC
Oci-Ly-19 = assay: in vitro ADCC assay; type: cell-based, human; settings: Oci-Ly-19, in vitro ADCC
Toledo cell lines = assay: in vitro ADCC assay; type: cell-based, human
Karpas-422 = assay: in vitro Antibody-dependent cellular cytotoxicity (ADCC) assay; type: cell-based, human; settings: Karpas-422, in vitro ADCC
[2] = system: DB (diffuse large cell lymphoma); assay: in vitro ADCC assay; type: cell-based, human
[3] = system: diffuse large B-cell lymphoma cell lines; assay: in vitro ADCC assays, high versus low sensitivity cell lines; type: cell-based, human; settings: in other cases 1000-fold or more
Excerpt: The following microRNAs had significant differences: miR-629; miR-99b; miR-let-7e; miR-15a; and miR-29a.

FccRIIIA = FccRIIIA (Homo sapiens, UniProt P08637); settings: afucosylated mAb relative to mAb anti-CD19-2; cited from earlier work
Sequence of FccRIIIA (P08637 17-254): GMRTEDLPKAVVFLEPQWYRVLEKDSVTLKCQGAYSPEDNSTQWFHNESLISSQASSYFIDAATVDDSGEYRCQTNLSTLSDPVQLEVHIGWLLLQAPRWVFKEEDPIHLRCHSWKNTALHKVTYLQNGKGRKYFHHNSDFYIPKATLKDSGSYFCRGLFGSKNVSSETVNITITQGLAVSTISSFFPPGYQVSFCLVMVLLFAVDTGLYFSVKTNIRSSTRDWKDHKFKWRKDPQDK

[4] = system: Karpas 422 cells expressing miR-629; assay: in vitro ADCC in miR-629 over-expressing cells; type: cell-based, human; settings: miR-629 over-expression vs vector control
Description: FIGS. 12A and 12B are graphs. […] LDH release has been a known prognostic factor in lymphoma for many years and is measured routinely in clinical practice. […] Therefore, it is likely that miR-629 expression levels are related to the aggressiveness of the tumor. This could, in part, explain the correlation between miR-629 and response to MEDI-551.
The diffuse large B-cell lymphoma cell line Karpas-422 was transduced with a lentiviral vector over-expressing miR-629 or a scrambled miRNA control (Open Biosystems, Huntsville, Ala.) at an MOI of 2-20. Transduced cells were expanded for 1-2 weeks. Utilizing RFP, cells were sorted by fluorescence-activated cell sorting (FACS) into high miR-629 and low miR-629 populations. Clones were also generated using the limiting dilution method. Over-expression of miR-629 was evaluated by TaqMan QPCR.

MEC-2 = assay: ADCC assay after miR-629 over-expression; type: cell-based, human; settings: MEC-2, miR-629 over-expressed (miR-629 mimic)
Description: (§1) FIGS. 14A-D are graphs showing the results of an antibody dependent cytotoxicity (ADCC) assay. miR-629 was overexpressed in the specified cell type, and the cells were then treated with an anti-CD19 antibody (MEDI551).
(§2) The effect of altering miR-629 on sensitivity to treatment with an anti-CD19 antibody (MEDI551) was explored. Human leukemia and lymphoma cell lines Daudi, Toledo, and RL were obtained from American Type Culture Collection (ATCC); Karpas 1106P, Karpas 422, OCI-Ly-19, MEC2 were obtained from Deutsche Sammlung von Mikroorganismen und Zellkulturen (DSMZ, Germany). Cell lines were transfected with […] of a miR-629 mimic (Karpas 1106P, Karpas 422, Daudi, MEC2, OCI-Ly-19, SU-DHL-6, and Toledo), a miR-629 hairpin inhibitor (RL and ARH-77), or respective negative control oligonucleotides (all from Dharmacon) using PrimeFect (Lonza) for 24 hours. CD19 and CD20 surface expression was determined by flow cytometry (LSRII, BD Biosciences) using their respective fluorescently labeled monoclonal antibodies. Surface expression is reported as mean fluorescent intensity (MFI) and was averaged for untransfected as well as miR-629 and negative control transfected cells.

Daudi = assay: ADCC assay after miR-629 over-expression; type: cell-based, human; settings: miR-629 over-expressed (miR-629 mimic)
Description: as §1, §2

SU-DHL-6 = assay: ADCC assay after miR-629 over-expression; type: cell-based, human; settings: SU-DHL-6, miR-629 over-expressed (miR-629 mimic)
Description: as §1, §2

Toledo = assay: ADCC assay after miR-629 over-expression; type: cell-based, human; settings: miR-629 over-expressed (miR-629 mimic)
Description: as §1, §2

[5] = system: Relapsed or Refractory Advanced B-Cell Malignancies; assay: Clinical Trial No. CP204, Phase 1 dose-escalation study of MEDI-551 as a single agent; type: in vivo, human
Description: miR-629 expression levels were measured in baseline whole blood samples from diffuse large B cell lymphoma (DLBCL), follicular lymphoma (FL), and Chronic lymphocytic leukemia (CLL) patients treated with an anti-CD19 antibody treatment as a single agent in Clinical Trial No. CP204, A Phase 1, Dose-escalation Study of MEDI-551, a Humanized Monoclonal Antibody Directed Against CD19, in Adult Subjects With Relapsed or Refractory Advanced B-Cell Malignancies.

SUD-HL-6 = assay: in vitro ADCC assay; type: cell-based, human; settings: SUD-HL-6, in vitro ADCC
[6] = afucosylated mAb relative to mAb anti-CD19-2; cited from earlier work

Molecule: Rituximab: anti-CD20 antibody therapy used as comparator [reference compound]
- CR/PR, number of patients [1]: 6
- PD, number of patients [1]: 2

B1: MEDI-551: afucosylated form of the CD19 mAb anti-CD19-2, developed by humanization and affinity optimization of the HB12b mAb (antibody, chains of the INN, looked up, V domains shown)
VH: EVQLVESGGGLVQPGGSLRLSCAASGFTFSSSWMNWVRQAPGKGLEWVGRIYPGDGDTNYNVKFKGRFTISRDDSKNSLYLQMNSLKTEDTAVYYCARSGFITTVRDFDYWGQGTLVTVSS
VL: EIVLTQSPDFQSVTPKEKVTITCRASESVDTFGISFMNWFQQKPDQSPKLLIHEASNQGSGVPSRFSGSGSGTDFTLTINSLEAEDAATYYCQQSKEVPFTFGGGTKVEIK
modifications: afucosylated
- sensitivity to anti-CD19 antibody treatment (RL): low sensitivity
- sensitivity to anti-CD19 antibody treatment (ARH-77): low sensitivity
- sensitivity to anti-CD19 antibody treatment (Oci-Ly-19): high sensitivity
- sensitivity to anti-CD19 antibody treatment (Toledo cell lines): high sensitivity
- sensitivity to anti-CD19 antibody treatment (Karpas-422): highly sensitive
- sensitivity to anti-CD19 antibody treatment (Karpas-422; listed as anti-CD19 antibody): high sensitivity
- sensitivity to anti-CD19 antibody treatment [2]: low sensitivity
- CR/PR, number of patients [1]: 10
- PD, number of patients [1]: 3
- EC50s for the high sensitivity cell lines lower than the low sensitivity cell lines [3]: at least 100 fold
- affinity to FccRIIIA (FccRIIIA): increased
- shift in Ec50 for anti-CD19 antibody treatment in in vitro ADCC [4]: slight shift
- reduced sensitivity to anti-CD19 antibody (MEC-2): 15-25%
- reduced sensitivity to anti-CD19 antibody (Daudi): 15-25%
- difference in cytotoxicity (SU-DHL-6): 15-20%
- difference in cytotoxicity (Toledo): 15-20%
- CR/PR (complete or partial response), number of patients ([5]; Chronic lymphocytic leukemia): 3
- PD (progressive disease), number of patients ([5]; Chronic lymphocytic leukemia): 3
- CR/PR (complete or partial response), number of patients ([5]; diffuse large B-cell lymphoma): 5
- PD (progressive disease), number of patients ([5]; diffuse large B-cell lymphoma): 10
- CR/PR (complete or partial response), number of patients ([5]; follicular lymphoma): 6
- PD (progressive disease), number of patients ([5]; follicular lymphoma): 2
- sensitivity to anti-CD19 antibody treatment (SUD-HL-6): high sensitivity
- ADCC activity [6]: enhanced
